# Positions of bridges follow the written chain, without caps; N, C: chain ends. No end group written: not given here.
# T1: hu-IL-2Rβ subunit (human, UniProt P14784 27-240, limits assumed)
# T1 construct: also called human interleukin-2 receptor subunit β; CD122
# T1 sequence (looked up): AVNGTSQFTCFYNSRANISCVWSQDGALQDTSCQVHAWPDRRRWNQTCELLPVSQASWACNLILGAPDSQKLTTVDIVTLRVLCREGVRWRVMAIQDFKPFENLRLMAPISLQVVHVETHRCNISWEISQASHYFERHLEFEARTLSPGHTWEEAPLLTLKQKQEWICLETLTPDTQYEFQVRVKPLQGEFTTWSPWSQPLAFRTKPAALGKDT
# Molecular target: T1, hu-IL-2Rβ subunit
# Assay: phage ELISA competition assay
row,Binder,IC50
1,GQVVETSLPCWEAQLGELCVLD [SEQ ID NO 202],< 100 µM
2,IPKGESWFPCWMAAMGELCDLE (disulfide 10-19 (inferred)) [SEQ ID NO 208],< 100 µM
3,WRVTASLQPCWMAQLGELCDLN [SEQ ID NO 201],< 100 µM
4,WLPCWLAHLGDICDLQ [SEQ ID NO 195],< 100 µM
5,WKPCWMAGLGELCELD [SEQ ID NO 190],< 100 µM
6,WQPCWRAKLGELCDLE [SEQ ID NO 192],< 100 µM
7,IRSCSPCWSADVGELCDLECEW [SEQ ID NO 91],< 100 µM
8,WNPCWIAQLGDLCDMV [SEQ ID NO 194],< 100 µM
9,YRRERVEFPCWLAQLGELCDKE [SEQ ID NO 206],< 100 µM
10,WSPCWIATLGELCDLD [SEQ ID NO 193],< 100 µM
11,TVGQFEWYPCSTAQLGELCDLD [SEQ ID NO 203],< 100 µM
12,WFPCWMAQLGQLCDLE [SEQ ID NO 89],< 100 µM
13,WLPCWMAKLGDLCELE [SEQ ID NO 186],< 100 µM
14,LHPCWMAQLGELCDLE (disulfide 4-13 (inferred)) [SEQ ID NO 188],< 100 µM
15,WKPCWLAQLGDLCEME [SEQ ID NO 185],< 100 µM
16,AVSHGNWLPCYIAQLGELCDLD [SEQ ID NO 207],< 100 µM
17,WLSPPSYLPCWMAQLGELCDLV [SEQ ID NO 196],< 100 µM

row,Binder,IC50
1,WLPCWMAQLGELCVME [SEQ ID NO 187],< 100 µM
2,WWPCSSAELGEICDFD [SEQ ID NO 191],< 100 µM
3,YKPCWIAQLGELCELE [SEQ ID NO 183],< 100 µM
4,WQPCWMAQLGELCDLE [SEQ ID NO 184],< 100 µM
5,WDVHAIRNPCWLAKLGDLCDLD [SEQ ID NO 197],< 100 µM
6,SLPCWMAQLGELCDLV [SEQ ID NO 189],< 100 µM
7,DTGRDGWKPCWMALLGELCELE [SEQ ID NO 199],< 100 µM
8,ALVGGTFYPCYVAHLGELCDIE (disulfide 10-19 (inferred)) [SEQ ID NO 204],< 100 µM
9,SGHWYPCWMARLGELCDMEERA [SEQ ID NO 92],< 100 µM
10,IDRADGWKPCWIAQVGELCVLE [SEQ ID NO 205],< 100 µM
11,QPCWLAQVGDLCDLLWPGPL [SEQ ID NO 79],< 100 µM
12,WRPCWRAYLGELCDLEAMPRAT [SEQ ID NO 90],< 100 µM
13,EQGMLGYFPCWKALLGDVCDLD [SEQ ID NO 200],< 100 µM
14,SNPCWMAQLWELCDLE [SEQ ID NO 182],< 100 µM
15,WYPCWMAQLGELCDLQTMGYSH [SEQ ID NO 93],< 100 µM
16,GAGVLHRWPCWMAKLGDLCDLD [SEQ ID NO 198],< 100 µM
17,VMSPTRWLPCWIAKLGELCDLE [SEQ ID NO 88],< 100 µM

# Other lines, results leading:
row,IC50,Binder
1,< 100 µM,FFPCWMGQLGDLCDLEVRSMQK [SEQ ID NO 230]
2,< 100 µM,RRSWYPCRIAQLGELCDLDPRV (disulfide 7-16 (inferred)) [SEQ ID NO 238]
3,< 100 µM,WKPCFIASLGELCDLDQGSVEV [SEQ ID NO 227]
4,< 100 µM,MGSWLPCWMAQLGDLCDVEGGM [SEQ ID NO 234]
5,< 100 µM,WYSCGKAQLGELCDLDVESQPG [SEQ ID NO 222]
6,< 100 µM,YWPCSMASLGELCDLEWQGRLP [SEQ ID NO 231]
7,< 100 µM,WFPCWMAQLGDLCELEPDSVPA [SEQ ID NO 225]
8,< 100 µM,WKPCWMARLGELCDIEDTKVNA [SEQ ID NO 213]
9,< 100 µM,WKPCWLAQLGELCDLERPSTTS [SEQ ID NO 221]
10,< 100 µM,WKPCWIADLGELCDLAPAWHEY [SEQ ID NO 216]
11,< 100 µM,WYPCYMASLGELCDLQSSISPR [SEQ ID NO 232]
12,< 100 µM,YVPCYMARLGELCELEANRPGQ [SEQ ID NO 223]
13,< 100 µM,WTPCWIAHLGDLCDLEPQDDTD [SEQ ID NO 226]
14,< 100 µM,SKPCWLAQLGDLCDFDWTAADH [SEQ ID NO 224]
15,< 100 µM,WYPCWIAQLGEVCDLEKQTGSV [SEQ ID NO 209]
16,< 100 µM,QKGFLPCWRAQLGQLCDMESQY [SEQ ID NO 235]

row,IC50,Binder
1,< 100 µM,WYPCWMAQLGELCDHEWPSYGA [SEQ ID NO 233]
2,< 100 µM,QRNSFPCWLAQLGDLCDLGDWA [SEQ ID NO 240]
3,< 100 µM,WYPCWMAHLGDVCDLESFGQTE [SEQ ID NO 210]
4,< 100 µM,SLPCWIARLGELCDLDGYDGEE [SEQ ID NO 214]
5,< 100 µM,WKPCWMAALGELCDLERSVGKV [SEQ ID NO 228]
6,< 100 µM,GYPCWLAQLGDYCDLDAGAPSW [SEQ ID NO 219]
7,< 100 µM,RLPCWRAQLGDLCELDWGLDMG [SEQ ID NO 217]
8,< 100 µM,SKPCWMAQLGELCDLDVWNLQM [SEQ ID NO 218]
9,< 100 µM,GSGWQPCWMADLGELCDLDNEK [SEQ ID NO 236]
10,< 100 µM,WRRWYPCWMAQLGELCDLDQWT [SEQ ID NO 237]
11,< 100 µM,FYPCWKARLGELCELEELRGYY [SEQ ID NO 215]
12,< 100 µM,YKPCQMAQLGELCDLDVDNKAE [SEQ ID NO 211]
13,< 100 µM,WKPCWRAQLGELCDLELGPSER [SEQ ID NO 229]
14,< 100 µM,SWPCWMAQLGDLCDLDGSAGAS [SEQ ID NO 220]
15,< 100 µM,FKPCWIANLGELCDMDDERSSE (disulfide 4-13 (inferred)) [SEQ ID NO 212]
16,< 100 µM,AYRIYPCWKAQLGELCDLDNAD [SEQ ID NO 239]

# From US20240101959A1, “USE OF IL-2R-BETA-GAMMA AGONIST PEPTIDES IN CELL MANUFACTURING” (MEDIKINE, INC., priority 2022, published 2024)
